# B1: XBP-1u/s: vector expressing XBP-1 mRNA giving the unspliced form and, upon IRE-dependent splicing, the spliced form (protein, UniProt O35426 1-267, looked up)
# X-box-binding protein 1: MVVVAAAPSAATAAPKVLLLSGQPASGGRALPLMVPGPRAAGSEASGTPQARKRQRLTHLSPEEKALRRKLKNRVAAQTARDRKKARMSELEQQVVDLEEENHKLQLENQLLREKTHGLVVENQELRTRLGMDTLDPDEVPEVEAKGSGVRLVAGSAESAALRLCAPLQQVQAQLSPPQNIFPWTLTLLPLQILSLISFWAFWTSWTLSCFSNVLPQSLLVWRNSQRSTQKDLVPYQPPFLCQWGPHQPSWKPLMNSFVLTMYTPSL
# modifications: GFP retroviral vector
# notes: vector expressing XBP-1 mRNA giving the unspliced form and, upon IRE-dependent splicing, the spliced form
# Tests used:
# [1] = biological target: XBP-1s (spliced form of murine XBP-1 protein, 371 aa) (mouse) (UniProt O35426); test: cell-based or functional assay
# [2] = tested on: IRE1α-mediated XBP-1 mRNA splicing; test: XBP-1 mRNA level and splicing in J558 cells (Northern blot, RT-PCR); type: cell-based; settings: J558, Tm 4 hrs; MG-132 10 μM, PS-341 10 μM, ZL3VS 50 μM, AdaAhxL3VS 50 μM
# Experimental: (A) XBP-1 mRNA levels in ER stressed J558 cells treated with Tm for 4 hrs in the absence or presence of MG-132. Cells were pretreated with MG-132 for 1 hr before adding Tm. XBP-1 mRNA levels were determined by Northern blot analysis. […] (C) Effect of a panel of PIs on XBP-1 splicing. Cells were treated with Tm for 4 hrs in the absence or presence of MG-132 (10 μM), PS-341 (10 μM), Lactacystin (10 μM), ZL3VS (50 μM) or AdaAhxL3VS (50 μM), and XBP-1 mRNA splicing measured by RT-PCR analysis. (D) IRE-1α phosphorylation in NIH3T3 cells were treated with Tm as indicated after 2 hrs of pretreatment with MG-132 (10 μM).
# Total RNA was prepared by using Trizol reagent, electrophoresed on 1.2% agarose, 6% formaldehyde gels and then transferred onto Genescreen Plus membrane, (NEN, Boston, Mass.). […] Probes for ERdj4 and p58^IPK were generated from cDNA excised from EST clones (ATCC, Manassas, Va.) using appropriate restriction enzymes (ERdj4, IMAGE: 1920927; p58^IPK, IMAGE:2646147).
# [3] = tested on: XBP-1 mRNA; test: XBP-1 mRNA induction by cytokines in purified splenic B cells (Northern blot); type: cell-based, mouse; settings: 20 μg/ml cycloheximide added 30 min before IL-4, 4 hours
# Experimental: (§1) Mouse splenocytes or purified B cells (purified mature B cells were isolated from spleen and lymph nodes by magnetic CD43 depletion or B220 magnetic bead selection, Miltenyi Biotech, Auburn Calif.) were plated at 1×10^6 cells/ml in complete media containing RPMI 1640 supplemented with 10% fetal calf serum (FBS)(Hyclone Laboratories), glutamine (2 mM), penicillin (50 units/ml), streptomycin (50 μg/ml), Hepes (100 mM), nonessential amino acids (1×) sodium pyruvate (1 mM) and β-ME (50 μM) and stimulated with anti-CD40(1 μg/ml)(Pharmigen) or LPS (20 μg/ml)(Sigma). Cytokines (R&D Systems, Minneapolis, Minn.) were used at IL-4 (20 ng/ml), IL-2 (20 ng/ml), Il-5 (20 ng/ml), IL-6 (20 ng/ml ), IL-10 (20 ng/ml ) and IL-13 (20 ng/ml). Stimulated B cells were split to a cell concentration of 1×10^6 cells/ml with fresh media every 24 h. The BCL1 (CWS13.20-3B3 ATCC CRL 1699) cell line was cultured in RPMI media supplemented with 10% FBS, gentamicin (20 μg/ml), and β-ME (50 μM). To induce differentiation cells were plated at 2×10^5 cells/ml and treated with recombinant mouse IL-2 and IL-5 (20 ng/ml) (R&D systems).
# Total RNA was isolated using TriZo1 (Gibco-BRL) or Qiashedder/Rneasy RNA purification columns (Quiagen). Northern Blots were performed as described (Rengarajan et al., 2000 Immunity. 12:293-300). Briefly, 7-10 μg RNA were electrophoresed on 1.2% agarose, 6% formaldehyde gels transferred onto Genescreen membrane (NEN) and covalently bound to the membrane using UV Stratalinker (Stratagene). The following probes were used after ^32P-radiolabeling with the ReadyPrime labeling system (Amersham-Pharmacia): XBP-1 (15-830 of the murine coding region), GRP94 and GRP78 (both a kind gift of R. J. Kaufman Univ. of Michigan (Lee et al., 2002)), Blimp (Nco1-Sca1 fragment), c-myc cDNA and Il-6 cDNA . […]
# Since XBP-1 is required for terminal B cell differentiation, it was important to identify the stimuli that regulate XBP-1 gene expression. A plethora of cytokines (IL-2, IL-4, IL-5, IL-6, IL-10, IL-13) has been implicated in plasma cell differentiation both in vitro and in vivo (reviewed in Calame, K. L. (2001 Nat. Inimunol. 2: 1103-1108; Liu, Y. J., and Banchereau, J. (1997). Sem Immunol 9: 235; Zubler, 1997Sem. Hematol 34:13). It was possible that these cytokines effected terminal B cell differentiation by modulating XBP-1 gene expression. Thus, the ability of these cytokines to upregulate XBP-1 mRNA transcripts in B cells was tested. Purified splenic B cells were cultured for 24 h in the presence or absence of various cytokines and XBP-1 expression determined by Northern blot analysis. […] XBP-1 mRNA levels were determined by Northern blot analysis with γ-actin as control. […] XBP-1 mRNA levels were determined as above. […]
# [4] = tested on: BCL-1 cells; test: IgM secretion by retrovirally transduced BCL-1 cells (ELISA); type: cell-based
# Experimental: as §1
# (§2) Assays to measure immunoglobulin or cytokine levels in culture supernatants were performed as described (e.g., Hodge et al., 1996 Immunity. 4:397-405 or Science. 1996 274:1903-5).
# The XBP-1 cDNAs for the unspliced (XBP-1u/s) and the spliced (XBP-1s) forms were PCR-amplified from the total RNA of untreated and tunicamycin treated NIH3T3 cells, respectively, with a primer set (5′-[…]-3′ (SEQ ID NO: 7) and 5′-[…]-3′) (SEQ ID NO: 8). XBP-1u form was generated by a PCR-based mutagenesis from XBP-unspliced/s cDNA so that the two G residues at position 532 and 535 were changed to A without changing amino acid sequences in the XBP-1u open reading frame. Numbers are based on the sequences from gene bank database (NM_013842 [gi:13775155]). These XBP-1 cDNAs were inserted into the GFP-RV retroviral vector by using blunt end ligation (Sambrook et al., 1989). EFFECTENE transfection (Quiagen) was used to introduce the DNA into the Phoenix cell line as described by manufacturer (e.g., Reimold et al., 2001 Nature. 412:300-7 or Int Immunol. 2001 13:241-8). Viral supernatants were harvested after 48 hours and frozen at −80° C. for later use. B cells were purified from mouse spleens using CD43 depletion or positive selection with B220+ magnetic beads as described by the manufacturer (MidiMacs, Miltenyi Biotech). B cell purity was generally near 95% as confirmed by flow cytometry. The B cells (10^6 cells /ml) were then activated in culture with LPS 10 μg/ml and F (ab′)2 anti-IgM (5 μg/ml Southern Biotechnology Associates Inc.) for 24 hours. […]
# [5] = tested on: XBP-1^−/− B cells; test: Ig production by retrovirally transduced XBP-1-/- primary B cells (ELISA); type: cell-based, mouse; settings: LPS 10 μg/ml 72 h
# Experimental: as §2
# (§3) The XBP-1 cDNAs for the unspliced (XBP-1u/s) and the spliced (XBP-1s) forms were PCR-amplified from the total RNA of untreated and tunicamycin treated NIH3T3 cells, respectively, with a primer set (5′-[…]-3′ (SEQ ID NO: 7) and 5′-[…]-3′) (SEQ ID NO: 8). XBP-1u form was generated by a PCR-based mutagenesis from XBP-unspliced/s cDNA so that the two G residues at position 532 and 535 were changed to A without changing amino acid sequences in the XBP-1u open reading frame. Numbers are based on the sequences from gene bank database (NM_013842 [gi:13775155]). These XBP-1 cDNAs were inserted into the GFP-RV retroviral vector by using blunt end ligation (Sambrook et al., 1989). EFFECTENE transfection (Quiagen) was used to introduce the DNA into the Phoenix cell line as described by manufacturer (e.g., Reimold et al., 2001 Nature. 412:300-7 or Int Immunol. 2001 13:241-8). Viral supernatants were harvested after 48 hours and frozen at −80° C. for later use. B cells were purified from mouse spleens using CD43 depletion or positive selection with B220+ magnetic beads as described by the manufacturer (MidiMacs, Miltenyi Biotech). B cell purity was generally near 95% as confirmed by flow cytometry. The B cells (10^6 cells /ml) were then activated in culture with LPS 10 μg/ml and F (ab′)2 anti-IgM (5 μg/ml Southern Biotechnology Associates Inc.) for 24 hours. The 1 ml of activated B cells (10^6 cells/ml) were mixed with 4 μg of polybrene and 1 ml of virus-containing supernatant and spun at 1000 g for 45 minutes at 24° C. Cells were incubated for 24-36 h at 37° C. and then GFP+ cells were flow sorted and returned to culture with and without stimulation.
# The effects of these three different forms of XBP-1 on Ig secretion were compared in wild type and XBP-1^−/− B cells. In vitro activated splenic B cells were transduced using retroviruses expressing bicistronic mRNA encoding XBP-1u/s, XBP-1s, XBP-1u or control GFP. In FIGS. 5(A) and (B) purified B cells from wt and XBP-1^−/− mice were activated in culture with LPS 10 μg/ml and F (ab′)2 anti-IgM (5 μg/ml) for 24 hours. Retroviral transduction with GFP alone (GFP-Rv), XBP-1u/s (XBP-1u/s GFP Rv), XBP-1s (XBP-1s GFP Rv) or XBP-1u (XBP-1u GFP Rv) of activated B cells was performed. Cells were incubated for 24-36 h at 37° C. and then GFP+ cells were flow sorted and then returned to culture with LPS stimulation (10 μg/ml) for 72 h. IgM panel(A) and IgG2b panel (B) production analyzed by ELISA from culture supernatants of stimulated B cells. Experiments were done at least three times and standard deviation is shown.
# [6] = tested on: IL-6; test: IL-6 production by retrovirally transduced wt and XBP-1-/- B cells (ELISA, Northern blot); type: cell-based, murine; settings: LPS 72 h
# Experimental: as §2, §3
# In human multiple myeloma cells, XBP-1 was induced by IL-6 treatment and implicated in the proliferation of malignant plasma cells (Wen et al., 1999). However, no role for IL-6 in upregulating XBP-1 transcripts or in mediating splicing of XBP-1 RNA in mature B cells has been described (FIG. 6A). The ability of XBP-1 to induce IL-6 production in wt and XBP-1^−/− primary B cells was tested. As described above, in vitro activated murine splenic B cells were transduced using retroviruses expressing bicistronic mRNA for XBP-1u/s, XBP-1s, XBP-1u and control GFP. After cell sorting, GFP^+ cells were stimulated with LPS and assayed for cytokine production after 72 h. In FIG. 6 panel (A) purified B cells from wt and XBP-1^−/− mice were activated in culture with LPS 10 μg/ml and F(ab′)2 anti-IgM (5 μg/ml ) for 24 hours. Retroviral transduction with GFP alone (GFP-Rv), XBP-1u/s (XBP-1 u/s GFP Rv), XBP-1s (XBP-1s GFP Rv) or XBP-1u (XBP-1u GFP Rv) of activated B cells was performed. Cells were incubated for 24-36 h at 37° C. and then GFP+ cells were flow sorted and then returned to culture with LPS stimulation (10 μg/ml) for 72 h. Cytokine production was analyzed by ELISA from culture supernatants of stimulated B cells. Experiments were done at least three times and standard deviation is shown. In panel (B) Total RNAs were prepared from stimulated B cells above and XBP-1 mRNA levels were determined by Northern blot analysis with γ-actin control
molecule,measurement,setting,value
"XBP-1u (unspliced form of murine XBP-1 protein, 267 aa) (from UniProt O35426 1-267)","fold induction of luciferase, XBP-luciferase reporter in NIH3T3 cells, 5 uM MG-132, with unspliced XBP-1 (fold induction)",[1],5.8
same,"fold induction of luciferase, XBP-luciferase reporter in NIH3T3 cells, 5 uM MG-132, without unspliced XBP-1 (fold induction)",[1],41.9
CC(C)C[C@@H](/C=C/S(C)(=O)=O)NC(=O)[C@H](CC(C)C)NC(=O)[C@H](CC(C)C)NC(=O)CCCCCNC(=O)CCCCCNC(=O)CCCCCNC(=O)CC12CC3CC(CC(C3)C1)C2 [AdaAhx3L3VS],effect on Tm-induced XBP-1 mRNA splicing,[2],suppressed XBP-1 mRNA splicing as efficiently as MG-132
"C[C@@H]1C[C@@H]([C@H](O)CC2CC(=O)NC(=O)C2)C(=O)[C@@H](C)C1 [cycloheximide, reference compound]",effect on IL-4-induced upregulation of XBP-1 mRNA,[3],did not affect the upregulation of XBP-1 mRNA in response to IL-4
CC(C)C[C@@H](/C=C/S(C)(=O)=O)NC(=O)[C@H](CC(C)C)NC(=O)[C@H](CC(C)C)NC(=O)OCc1ccccc1 [ZL3VS],effect on Tm-induced XBP-1 mRNA splicing,[2],suppressed XBP-1 mRNA splicing as efficiently as MG-132
XBP-N136 (N terminal 136 amino acids of the spliced form of XBP-1) (from UniProt O35426 1-136),relative luciferase activity in NIH 3T3 cells (44.5 with 200 ng of spliced XBP-1 alone) (relative luciferase activity),[1],2.2
B1,IgM secretion compared to vector alone controls,[4]; GFP positive BCL-1 cells treated with IL-2 and IL-5 for 3 days,approximately threefold
same,Ig secretion,[4]; GFP positive BCL-1 cells untreated with cytokine,neither XBP-1u/s nor XBP-1s forms were able to induce Ig secretion
same,secretion of IgM compared to control cells,[5],approximately ten-fold
same,IL-6 secretion over control,[6],approximately 2 fold

# — US20040170622A1, “Methods and compositions for modulating XBP-1 activity” (President and Fellows of Harvard College, priority 2002, published 2004)
